T1: human orexin receptor 2 (human) (UniProt O43614)
T1 sequence: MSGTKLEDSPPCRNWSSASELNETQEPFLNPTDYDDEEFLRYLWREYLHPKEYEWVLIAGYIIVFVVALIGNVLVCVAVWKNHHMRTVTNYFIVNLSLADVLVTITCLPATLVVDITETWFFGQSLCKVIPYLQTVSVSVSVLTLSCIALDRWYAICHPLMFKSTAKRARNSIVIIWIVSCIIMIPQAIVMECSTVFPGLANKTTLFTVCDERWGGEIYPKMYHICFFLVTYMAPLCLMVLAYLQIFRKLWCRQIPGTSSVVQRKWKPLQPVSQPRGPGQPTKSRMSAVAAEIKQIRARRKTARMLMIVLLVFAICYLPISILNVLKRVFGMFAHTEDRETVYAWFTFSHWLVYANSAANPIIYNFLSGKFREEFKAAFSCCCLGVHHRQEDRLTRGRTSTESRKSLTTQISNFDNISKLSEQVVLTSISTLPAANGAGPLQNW


Target: T1, human orexin receptor 2 (human)

Row | intracellular accumulation of IP1 in hOX2R/CHO-EA cells, EC50 [nM] | intracellular phosphorylation of CREB (Ser133) in hOX2R/CHO-EA cells, EC50 [nM] | β-arrestin recruitment in hOX2R/CHO-EA cells (PathHunter), EC50 [nM] | Molecule
1 | 3.2 | 4.7 | 4 | orexin-B (from UniProt O43612 70-97) (peptide)
2 | 0.84 | 1.8 | 3 | QPLPDCCRQKTCSCRLYELLHGAGNHAAGILTL [orexin-A]

From publication PMC11379823
